Assay results: ChEMBL document CHEMBL1145290, “Beta-glucuronidase-cleavable prodrugs of O6-benzylguanine and O6-benzyl-2'-deoxyguanosine” (J Med Chem, 2005)

What was measured:
[1] = substrate: O=C(Nc1nc(OCc2ccccc2)c2[nH]cnc2n1)OCc1ccc(O[C@@H]2OC(C(=O)O)[C@@H](O)C(O)[C@@H]2O)c([N+](=O)[O-])c1; assay: (§1) Vmax value using bovine liver beta-glucuronidase obtained at 370 C in MOPS buffer of pH 7.0; details: Bos taurus
[2] = substrate: O=C(Nc1nc(OCc2ccccc2)c2ncn([C@H]3C[C@H](O)[C@@H](CO)O3)c2n1)OCc1ccc(O[C@@H]2O[C@H](C(=O)O)[C@@H](O)[C@H](O)[C@H]2O)c([N+](=O)[O-])c1; assay: as §1; details: Bos taurus
[3] = substrate: O=C(Nc1nc(OCc2ccccc2)c2[nH]cnc2n1)OCc1ccc(O[C@@H]2OC(C(=O)O)[C@@H](O)C(O)[C@@H]2O)c([N+](=O)[O-])c1; assay: (§2) KM value using bovine liver beta-glucuronidase obtained at 370 C in MOPS buffer of pH 7.0; details: Bos taurus
[4] = substrate: O=C(Nc1nc(OCc2ccccc2)c2ncn([C@H]3C[C@H](O)[C@@H](CO)O3)c2n1)OCc1ccc(O[C@@H]2O[C@H](C(=O)O)[C@@H](O)[C@H](O)[C@H]2O)c([N+](=O)[O-])c1; assay: as §2; details: Bos taurus
[5] = substrate: O=C(Nc1nc(OCc2ccccc2)c2[nH]cnc2n1)OCc1ccc(O[C@@H]2OC(C(=O)O)[C@@H](O)C(O)[C@@H]2O)c([N+](=O)[O-])c1; assay: (§3) Vmax value using Escherichia coli beta-glucuronidase obtained at 370 C in MOPS buffer of pH 7.0
[6] = substrate: O=C(Nc1nc(OCc2ccccc2)c2ncn([C@H]3C[C@H](O)[C@@H](CO)O3)c2n1)OCc1ccc(O[C@@H]2O[C@H](C(=O)O)[C@@H](O)[C@H](O)[C@H]2O)c([N+](=O)[O-])c1; assay: as §3
[7] = substrate: O=C(Nc1nc(OCc2ccccc2)c2[nH]cnc2n1)OCc1ccc(O[C@@H]2OC(C(=O)O)[C@@H](O)C(O)[C@@H]2O)c([N+](=O)[O-])c1; assay: (§4) KM value using Escherichia coli beta-glucuronidase obtained at 370 C in MOPS buffer of pH 7.0
[8] = substrate: O=C(Nc1nc(OCc2ccccc2)c2ncn([C@H]3C[C@H](O)[C@@H](CO)O3)c2n1)OCc1ccc(O[C@@H]2O[C@H](C(=O)O)[C@@H](O)[C@H](O)[C@H]2O)c([N+](=O)[O-])c1; assay: as §4

B1: Beta-glucuronidase (Bos taurus), A3KMY8 (protein)
chain: MLRGSAGAWAVLGPLLWGCGLSLLQGGMLYPRESRSRERKELDGLWSFRADFSDNRRQGFEQQWYRAPLRESGPTLDMPVPSSFNDVGQDGQLRSFVGWVWYEREITLPQRWTEDLGTRVVLRIGSAHYYAIVWVNGVHVLEHEGGHLPFEADISKLVQSGPLSSCRITIAINNTLSPHTLPPGTILYKTDPSMYPKGYFVQNTKFDFFNYAGLHRSVLLYTTPTTYIDDITVTTDMDQDIGLVNYQIIVQGSDHFQVDVSLLDEEGKVMAKGAGAEGQLQVPSAHLWWPYLMHEHPAYLYSLEVKLTAQTAVGPVSDFYTLPVGIRTVAVTKSQFLINGKPFYFRGVNKHEDADIRGKGFDWPLLVKDFNLLRWLGANAFRTSHYPYSEEVLQLCDRYGIVVIDESPGVGIVLVESFSNVSLQHHLEVMEEMIRRDKNHPAVVMWSLANEPASFLKPAGYYFKTLIAHTKALDPSRPVTFVTNTNYEADLGAPYVDIICVNSYYSWYHDYGHMEVIQLQLATQFENWYKAYQKPMIQSEYGADAIEGFHEDPPLMFSEEYQKGLLQQYHVVLDQKRKEYVVGELIWNFADFMTNQSPVRMIGNRKGIFTRQRQPKSAAFLLRERYWKLANETRYQRSAVTSQCVGSGLFTV
B1 was tested, and the Vmax [1] was 0.27 µmol/mg/min, the Vmax [2] was 0.39 µmol/mg/min and the Km [3] was 240 µM. For the same protein, the Km [4] was 360 µM.

B2: Beta-glucuronidase (Escherichia coli (strain K12)), P05804 (protein)
chain: MLRPVETPTREIKKLDGLWAFSLDRENCGIDQRWWESALQESRAIAVPGSFNDQFADADIRNYAGNVWYQREVFIPKGWAGQRIVLRFDAVTHYGKVWVNNQEVMEHQGGYTPFEADVTPYVIAGKSVRITVCVNNELNWQTIPPGMVITDENGKKKQSYFHDFFNYAGIHRSVMLYTTPNTWVDDITVVTHVAQDCNHASVDWQVVANGDVSVELRDADQQVVATGQGTSGTLQVVNPHLWQPGEGYLYELCVTAKSQTECDIYPLRVGIRSVAVKGEQFLINHKPFYFTGFGRHEDADLRGKGFDNVLMVHDHALMDWIGANSYRTSHYPYAEEMLDWADEHGIVVIDETAAVGFNLSLGIGFEAGNKPKELYSEEAVNGETQQAHLQAIKELIARDKNHPSVVMWSIANEPDTRPQGAREYFAPLAEATRKLDPTRPITCVNVMFCDAHTDTISDLFDVLCLNRYYGWYVQSGDLETAEKVLEKELLAWQEKLHQPIIITEYGVDTLAGLHSMYTDMWSEEYQCAWLDMYHRVFDRVSAVVGEQVWNFADFATSQGILRVGGNKKGIFTRDRKPKSAAFLLQKRWTGMNFGEKPQQGGKQ
For B2, the Vmax [5] was 7.8 µmol/mg/min, the Vmax [6] was 11 µmol/mg/min and the Km [7] was 17 µM. For the same protein, the Km [8] was 41 µM.
